The values below are quoted from earlier work in patent US7850723B1, “Method and apparatus for patient temperature control employing titration of therapy using EEG signals” (Innercool Therapies, Inc., priority 2005, dated 2010).

In one series the target is plasmin (Homo sapiens, UniProt P00747).
For series [1], the system named is clots. The settings on record: clots treated with 2.5 μg/ml tPA; incubated at 37, 25, 10, 0 and −8° C.
The test system of series [2] is clots. The settings on record: tPA 0.3, 1.0 and 3.0 μg/ml; incubated at 24° C. to 40° C.

Chain of plasmin (P00747 581-810 limits assumed, species assumed): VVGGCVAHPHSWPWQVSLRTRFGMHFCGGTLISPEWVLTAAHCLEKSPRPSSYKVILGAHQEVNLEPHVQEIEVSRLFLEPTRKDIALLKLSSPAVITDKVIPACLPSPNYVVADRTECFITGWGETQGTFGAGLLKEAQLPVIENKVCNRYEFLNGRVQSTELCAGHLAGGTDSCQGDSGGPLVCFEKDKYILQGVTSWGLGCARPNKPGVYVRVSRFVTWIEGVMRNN
Chain of plasmin (P00747 97-580 partner limits assumed, species assumed): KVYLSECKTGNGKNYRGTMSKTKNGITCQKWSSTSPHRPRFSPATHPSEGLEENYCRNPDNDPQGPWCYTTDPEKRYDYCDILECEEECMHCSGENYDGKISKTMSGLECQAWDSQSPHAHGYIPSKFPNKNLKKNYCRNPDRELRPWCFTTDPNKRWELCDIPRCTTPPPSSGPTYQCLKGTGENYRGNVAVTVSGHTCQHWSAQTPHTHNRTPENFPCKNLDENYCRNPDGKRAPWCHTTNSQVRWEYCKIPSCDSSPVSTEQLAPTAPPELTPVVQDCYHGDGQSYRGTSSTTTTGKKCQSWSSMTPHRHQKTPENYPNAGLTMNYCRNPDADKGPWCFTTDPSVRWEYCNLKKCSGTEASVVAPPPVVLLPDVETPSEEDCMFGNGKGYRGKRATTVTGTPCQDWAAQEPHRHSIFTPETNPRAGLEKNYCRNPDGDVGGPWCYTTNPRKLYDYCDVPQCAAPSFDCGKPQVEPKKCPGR

B1: α2-antiplasmin (protein, UniProt P08697 40-491, looked up)
Alpha-2-antiplasmin: NQEQVSPLTLLKLGNQEPGGQTALKSPPGVCSRDPTPEQTHRLARAMMAFTADLFSLVAQTSTCPNLILSPLSVALALSHLALGAQNHTLQRLQQVLHAGSGPCLPHLLSRLCQDLGPGAFRLAARMYLQKGFPIKEDFLEQSEQLFGAKPVSLTGKQEDDLANINQWVKEATEGKIQEFLSGLPEDTVLLLLNAIHFQGFWRNKFDPSLTQRDSFHLDEQFTVPVEMMQARTYPLRWFLLEQPEIQVAHFPFKNNMSFVVLVPTHFEWNVSQVLANLSWDTLHPPLVWERPTKVRLPKLYLKHQMDLVATLSQLGLQELFQAPDLRGISEQSLVVSGVQHQSTLELSEVGVEAAAATSIAMSRMSLSSFSVNRPFLFFIFEDTTGLPLFVGSVRNPNPSAPRELKEQQDSPGNKDFLQSLKGFPRGDKLFGPDLKLVPPMEEDYPQFGSPK
With B1, the “time required to inactivate plasmin bound to a fibrin surface” value with plasmin is on record as “about 10 seconds”.

B2: tissue plasminogen activator (protein, UniProt P00750 36-562, looked up)
Tissue-type plasminogen …: SYQVICRDEKTQMIYQQHQSWLRPVLRSNRVEYCWCNSGRAQCHSVPVKSCSEPRCFNGGTCQQALYFSDFVCQCPEGFAGKCCEIDTRATCYEDQGISYRGTWSTAESGAECTNWNSSALAQKPYSGRRPDAIRLGLGNHNYCRNPDRDSKPWCYVFKAGKYSSEFCSTPACSEGNSDCYFGNGSAYRGTHSLTESGASCLPWNSMILIGKVYTAQNPSAQALGLGKHNYCRNPDGDAKPWCHVLKNRRLTWEYCDVPSCSTCGLRQYSQPQFRIKGGLFADIASHPWQAAIFAKHRRSPGERFLCGGILISSCWILSAAHCFQERFPPHHLTVILGRTYRVVPGEEEQKFEVEKYIVHKEFDDDTYDNDIALLQLKSDSSRCAQESSVVRTVCLPPADLQLPDWTECELSGYGKHEALSPFYSERLKEAHVRLYPSSRCTSQHLLNRTVTDNMLCAGDTRSGGPQANLHDACQGDSGGPLVCLNDGRMTLVGIISWGLGCGQKDVPGVYTKVTNYLDWIRDNMRP
As for B2, the plasminogen activation entry with clots [1] is recorded as “relatively high at low temperatures”. In addition, the “amount of clot lysis” value in the series on clots [2] is given as “the amount of clot lysis at lower temperatures was less than that at higher temperatures”.
